# Data: paper PMC10511321
# Key:
# [1] = biological target: SARS-CoV-2 Omicron BA.2.75.2 RBD, construct used for SPR (SARS-CoV-2) (UniProt P0DTC2); experiment: SPR
# [2] = biological target: SARS-CoV-2 Omicron XBB.1 S glycoprotein, cell-surface expressed (Δ19) (SARS-CoV-2) (UniProt P0DTC2)
# [3] = biological target: SARS-CoV-2 Omicron BN.1 S glycoprotein, cell-surface expressed (Δ19) (SARS-CoV-2) (UniProt P0DTC2)
# [4] = biological target: SARS-CoV-2 Omicron BQ.1.1 S glycoprotein, cell-surface expressed (Δ19) (SARS-CoV-2) (UniProt P0DTC2)
Substance,Kd [1] [nM],koff [1] [s⁻¹],kon [1] [M⁻¹ s⁻¹],"neutralization of S VSV pseudovirus, fold reduction in potency relative to Wu [2] [fold]","neutralization of S VSV pseudovirus, fold reduction in potency relative to Wu [3] [fold]","neutralization of S VSV pseudovirus, fold reduction in potency relative to Wu [4] [fold]"
"S309 Fab (fragment antigen-binding region of the S309 antibody, the parent antibody for sotrovimab), used for SPR",0.86,2.8e-05,25500,–,–,–
sotrovimab immunoglobulin G (IgG) (antibody),–,–,–,6.5,778,94
